Source: paper PMC11440629 (Advanced Functional Materials, 2023)

Target: the molecule itself
Experiment: release from hydrogel

B1: NT2RepCT (other)
chain: MSHTTPWTNPGLAENFMNSFMQGLSSMPGFTASQLDDMSTIAQSMVQSIQSLAAQGRTSPNKLQALNMAFASSMAEIAASEEGGGSLSTKTSSIASAMSNAFLQTTGVVNQPFINEITQLVSMFAQAGMNDVSAGNSGRGQGGYGQGSGGNAAAAAAAAAAAAAAAGQGGQGGYGRQSQGAGSAAAAAAAAAAAAAAGSGQGGYGGQGQGGYGQSGNSVTSGGYGYGTSAAAGAGVAAGSYAGAVNRLSSAEAASRVSSNIAAIASGGASALPSVISNIYSGVVASGVSSNEALIQALLELLSALVHVLSSASIGNVSSVGVDSTLNVVQDSVGQYVG
binding result: binds
